According to paper PMC10394140:

Target: Re-PAX5 P80R (Homo sapiens, UniProt Q02548 1-391, P80R)
Assay: EMSA

Sequence of Re-PAX5 P80R (Q02548 whole entry P80R): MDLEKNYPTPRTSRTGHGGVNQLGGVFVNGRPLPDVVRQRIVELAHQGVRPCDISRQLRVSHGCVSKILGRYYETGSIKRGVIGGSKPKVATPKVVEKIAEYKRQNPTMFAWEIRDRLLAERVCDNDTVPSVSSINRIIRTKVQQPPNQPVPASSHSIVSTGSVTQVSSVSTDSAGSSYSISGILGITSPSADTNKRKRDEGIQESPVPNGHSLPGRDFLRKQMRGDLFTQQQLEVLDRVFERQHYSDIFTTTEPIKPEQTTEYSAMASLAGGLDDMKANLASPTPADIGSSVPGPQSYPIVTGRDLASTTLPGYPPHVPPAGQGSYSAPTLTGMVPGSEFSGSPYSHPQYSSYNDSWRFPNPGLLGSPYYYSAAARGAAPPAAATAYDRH

B1: Probe-1 (GINS1 promoter site1) (dsDNA)
DNA 1: GGTGCGGTGGCTCACGCTGTAATTCC
DNA 2: GGAATTACAGCGTGAGCCACCGCACC
B1: no binding.
